PMC3173486

Legend:
[1] = molecular target: HA of A/swine/Netherlands/1/87 (H1N1) (influenza A virus A/swine/Netherlands/1/87 (H1N1))
[2] = molecular target: HA of human-derived H3N2 strains
[3] = molecular target: HA of the 2009 pandemic H1N1 strains, California/4/09 and Netherlands/602/09
[4] = molecular target: HA of all influenza A/H1N1 viruses tested with RpSP-D multimers and trimers

“RpSP-D trimers (from UniProt Q9N1X4 21-378) (natural protein)” was tested, and the HI assay: minimal inhibitory concentration of RpSP-D trimers; not inhibited [1] was > 1600 ng/100 µl.

B1: recombinant human SP-D, P35247 21-375 (natural protein)
chain: AEMKTYSHRTMPSACTLVMCSSVESGLPGRDGRDGREGPRGEKGDPGLPGAAGQAGMPGQAGPVGPKGDNGSVGEPGPKGDTGPSGPPGPPGVPGPAGREGPLGKQGNIGPQGKPGPKGEAGPKGEVGAPGMQGSAGARGLAGPKGERGVPGERGVPGNTGAAGSAGAMGPQGSPGARGPPGLKGDKGIPGDKGAKGESGLPDVASLRQQVEALQGQVQHLQAAFSQYKKVELFPNGQSVGEKIFKTAGFVKPFTEAQLLCTQAGGQLASPRSAAENAALQQLVVAKNEAAFLSMTDSKTEGKFTYPTGESLVYSNWAPGEPNDDGGSEDCVEIFTNGKWNDRACGEKRLVVCEF
With B1 the HI assay: minimal inhibitory concentration of RhSP-D; failed to inhibit (HA of most H1N1 viruses) was > 7500 ng/100 µl.

B2: recombinant porcine SP-D, Q9N1X4 21-378 (natural protein)
chain: AEMKTYSQRAVANACALVMCSPMENGLPGRDGRDGREGPRGEKGDPGLPGAVGRAGMPGLAGPVGPKGDNGSTGEPGAKGDIGPCGPPGPPGIPGPAGKEGPSGQQGNIGPPGTPGPKGETGPKGEVGALGMQGSTGARGPAGLKGERGAPGERGAPGSAGAAGPAGATGPQGPSGARGPPGLKGDRGPPGERGAKGESGLPGITALRQQVETLQGQVQRLQKAFSQYKKVELFPNGRGVGEKIFKTGGFEKTFQDAQQVCTQAGGQMASPRSETENEALSQLVTAQNKAAFLSMTDIKTEGNFTYPTGEPLVYANWAPGEPNNNGGSSGAENCVEIFPNGKWNDKACGELRLVICEF
B2 gave an HI assay: minimal inhibitory concentration of RpSP-D (HA of swine H3N2 viruses) of 51 ng/100 µl, an HI assay: minimal inhibitory concentration of RpSP-D (HA of avian H3N2 viruses) of 14.6 ng/100 µl and an HI assay: minimal inhibitory concentration of RpSP-D [2] of 11 ng/100 µl. For the same molecule, the HI assay: average inhibitory concentration of RpSP-D [3] was 304 ng/100 µl.

B3: RpSP-D multimers (natural protein)
chain: AEMKTYSQRAVANACALVMCSPMENGLPGRDGRDGREGPRGEKGDPGLPGAVGRAGMPGLAGPVGPKGDNGSTGEPGAKGDIGPCGPPGPPGIPGPAGKEGPSGQQGNIGPPGTPGPKGETGPKGEVGALGMQGSTGARGPAGLKGERGAPGERGAPGSAGAAGPAGATGPQGPSGARGPPGLKGDRGPPGERGAKGESGLPGITALRQQVETLQGQVQRLQKAFSQYKKVELFPNGRGVGEKIFKTGGFEKTFQDAQQVCTQAGGQMASPRSETENEALSQLVTAQNKAAFLSMTDIKTEGNFTYPTGEPLVYANWAPGEPNNNGGSSGAENCVEIFPNGKWNDKACGELRLVICEF
B3 was tested, and the HI assay: average minimal inhibitory concentration of RpSP-D multimers [4] was 39.8 ng/100 µl.

B4: RpSP-D trimers (natural protein)
chain: AEMKTYSQRAVANACALVMCSPMENGLPGRDGRDGREGPRGEKGDPGLPGAVGRAGMPGLAGPVGPKGDNGSTGEPGAKGDIGPCGPPGPPGIPGPAGKEGPSGQQGNIGPPGTPGPKGETGPKGEVGALGMQGSTGARGPAGLKGERGAPGERGAPGSAGAAGPAGATGPQGPSGARGPPGLKGDRGPPGERGAKGESGLPGITALRQQVETLQGQVQRLQKAFSQYKKVELFPNGRGVGEKIFKTGGFEKTFQDAQQVCTQAGGQMASPRSETENEALSQLVTAQNKAAFLSMTDIKTEGNFTYPTGEPLVYANWAPGEPNNNGGSSGAENCVEIFPNGKWNDKACGELRLVICEF
In the case of B4, the HI assay: average minimal inhibitory concentration of RpSP-D trimers [4] is reported as 602 ng/100 µl.
